Experiments:
[1] = target: T1, TP53 (recombinant human, Calbiochem 506165) (human, UniProt P04637 1-393); assay: EMSA; anti-TP53 antibody tested; EMSA as in a cited earlier paper; buffer, salt, pH and temperature not given; competitor 100x excess added 10 min before probe; antibody preincubation 1 h on ice; details: protein: commercial; chain copies: 4; label: 32P (Klenow fill-in with [alpha-32P]-dCTP); 5' overhang 1 nt (G) on strand 2, filled in with labelled dC
[2] = target: T1, TP53 (recombinant human, Calbiochem …); assay: EMSA; shifted band faded by anti-TP53 antibody; EMSA as in a cited earlier paper; buffer, salt, pH and temperature not given; competitor 100x excess added 10 min before probe; antibody preincubation 1 h on ice; details: protein: commercial; chain copies: 4; label: 32P (Klenow fill-in with [alpha-32P]-dCTP); 5' overhang 1 nt (G) on strand 1, filled in with labelled dC

T1 sequence (P04637 whole entry): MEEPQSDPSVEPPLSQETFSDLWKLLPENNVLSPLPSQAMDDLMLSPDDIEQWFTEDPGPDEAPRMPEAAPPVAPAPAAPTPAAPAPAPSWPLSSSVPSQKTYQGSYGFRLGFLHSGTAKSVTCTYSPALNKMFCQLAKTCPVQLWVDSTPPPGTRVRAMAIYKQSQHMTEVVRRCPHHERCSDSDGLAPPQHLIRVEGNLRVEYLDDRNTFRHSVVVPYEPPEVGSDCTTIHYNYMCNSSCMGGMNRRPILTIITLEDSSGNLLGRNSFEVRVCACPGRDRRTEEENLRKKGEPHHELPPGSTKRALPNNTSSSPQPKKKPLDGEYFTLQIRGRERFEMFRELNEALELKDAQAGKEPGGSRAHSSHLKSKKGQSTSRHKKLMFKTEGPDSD

B1: TP53 probe (putative TP53 site, Panomics) (dsDNA)
DNA 1: TACAGAACATGTCTAAGCATGCTGGGG
DNA 2: GCCCCAGCATGCTTAGACATGTTCTGTA
[1]
  binding result: binds

B2: wtFOXA1 probe (dsDNA)
DNA 1: GGAAAGTGCAAGTCTGGACATGTTTATCAAGAGG
DNA 2: CCTCTTGATAAACATGTCCAGACTTGCACTTTC
[2]
  binding result: binds
